The supplement of paper PMC10567573

B1: EPB41L3 (parent)
chain: GSKFRYSGRTQAQTRRASALIDRP

Variants of: B1
Assay: protein stability index of a GFP-peptide fusion (GPS, HEK-293T) (PSI 1-6); higher = more stable
Conditions: c terminus: a fixed tail appended
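Note: lentivirally expressed fusions sorted by FACS into six bins by GFP to DsRed ratio, PSI derived from sequencing read proportions per bin multiplied by bin number.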

Row | Variant | protein stability index
1 | GSKFRYSGRTQAQTRRASALIDNP | 2.67
2 | GSKFRYSGRTQAQTRRASALIDIP | 2.11
3 | GSKFRYSGRTQAQTRRASALIDKP | 2.94
4 | GSKFRYSGRTQAQTRRASALIDQP | 3.12
5 | GSKFRYSGRTQAQTRRASALIDGP | 3.01
6 | GSKFRYSGRTQAQTRRASALIDSP | 3.01
7 | GSKFRYSGRTQAQTRRASALIDCP | 2.89
8 | GSKFRYSGRTQAQTRRASALIDFP | 2.69
9 | GSKFRYSGRTQAQTRRASALIDLP | 2.71
10 | GSKFRYSGRTQAQTRRASALIDVP | 2.67
11 | GSKFRYSGRTQAQTRRASALIDHP | 3.16
12 | GSKFRYSGRTQAQTRRASALIDDP | 3.44
13 | GSKFRYSGRTQAQTRRASALIDAP | 2.81
14 | GSKFRYSGRTQAQTRRASALIDMP | 2.41
15 | GSKFRYSGRTQAQTRRASALIDWP | 2.77
16 | GSKFRYSGRTQAQTRRASALIDTP | 2.58
17 | GSKFRYSGRTQAQTRRASALIDPP | 3.02
18 | GSKFRYSGRTQAQTRRASALIDEP | 3.32
19 | GSKFRYSGRTQAQTRRASALIDYP | 2.5
20 | GSKFRYSGRTQAQTRRASALGDRP | 3.9
21 | GSKFRYSGRTQAQTRRASALTDRP | 3.21
22 | GSKFRYSGRTQAQTRRASALNDRP | 3.95
23 | GSKFRYSGRTQAQTRRASALKDRP | 3.48
24 | GSKFRYSGRTQAQTRRASALMDRP | 3.6
25 | GSKFRYSGRTQAQTRRASALEDRP | 3.4

Row | Variant | protein stability index
26 | GSKFRYSGRTQAQTRRASALLDRP | 3.17
27 | GSKFRYSGRTQAQTRRASALSDRP | 3
28 | GSKFRYSGRTQAQTRRASALPDRP | 2.71
29 | GSKFRYSGRTQAQTRRASALYDRP | 2.73
30 | GSKFRYSGRTQAQTRRASALWDRP | 2.4
31 | GSKFRYSGRTQAQTRRASALHDRP | 3.32
32 | GSKFRYSGRTQAQTRRASALVDRP | 3.2
33 | GSKFRYSGRTQAQTRRASALFDRP | 2.97
34 | GSKFRYSGRTQAQTRRASALRDRP | 3.71
35 | GSKFRYSGRTQAQTRRASALQDRP | 3.06
36 | GSKFRYSGRTQAQTRRASALIDRS | 2.8
37 | GSKFRYSGRTQAQTRRASALIDRA | 2.57
38 | GSKFRYSGRTQAQTRRASALIDRF | 3.05
39 | GSKFRYSGRTQAQTRRASALIDRT | 3.05
40 | GSKFRYSGRTQAQTRRASALIDRH | 3.47
41 | GSKFRYSGRTQAQTRRASALIDRD | 3.56
42 | GSKFRYSGRTQAQTRRASALIDRL | 2.56
43 | GSKFRYSGRTQAQTRRASALIDRQ | 2.79
44 | GSKFRYSGRTQAQTRRASALIDRG | 3.32
45 | GSKFRYSGRTQAQTRRASALIDRY | 2.78
46 | GSKFRYSGRTQAQTRRASALIDRK | 3.44
47 | GSKFRYSGRTQAQTRRASALIDRW | 2.32
48 | GSKFRYSGRTQAQTRRASALIDRE | 3.19
49 | GSKFRYSGRTQAQTRRASALIDRC | 3.06
50 | GSKFRYSGRTQAQTRRASALIDRV | 3.05

Row | Variant | protein stability index
51 | GSKFRYSGRTQAQTRRASALIDRR | 3.54
52 | GSKFRYSGRTQAQTRRASALIDRN | 2.8
53 | GSKFRYSGRTQAQTRRASALIDRI | 2.71
54 | GSKFRYSGRTQAQTRRASALIDRM | 3
55 | GSKFRYSGRTQAQTRRASALIFRP | 3.4
56 | GSKFRYSGRTQAQTRRASALINRP | 2.82
57 | GSKFRYSGRTQAQTRRASALIRRP | 3.45
58 | GSKFRYSGRTQAQTRRASALIHRP | 3.7
59 | GSKFRYSGRTQAQTRRASALIYRP | 2.29
60 | GSKFRYSGRTQAQTRRASALIKRP | 2.7
61 | GSKFRYSGRTQAQTRRASALIERP | 3.72
62 | GSKFRYSGRTQAQTRRASALIIRP | 2.83
63 | GSKFRYSGRTQAQTRRASALIARP | 2.63
64 | GSKFRYSGRTQAQTRRASALISRP | 3.11
65 | GSKFRYSGRTQAQTRRASALIVRP | 2.66
66 | GSKFRYSGRTQAQTRRASALICRP | 2.99
67 | GSKFRYSGRTQAQTRRASALIGRP | 2.67
68 | GSKFRYSGRTQAQTRRASALIQRP | 3.54
69 | GSKFRYSGRTQAQTRRASALIPRP | 3.09
70 | GSKFRYSGRTQAQTRRASALIMRP | 2.69
71 | GSKFRYSGRTQAQTRRASALILRP | 2.99
72 | GSKFRYSGRTQAQTRRASALITRP | 3.02
73 | GSKFRYSGRTQAQTRRASALIWRP | 2.72
